The supplement of paper PMC9732359
± gives the uncertainty stated by the source.

Assay: protein stability index of a GFP-peptide fusion (yeast GPS) (PSI 1-4); higher = more stable; sorted into four equal gates, so the index is relative within each strain
Method in brief: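 Plasmids in a pooled yeast library fused tiled 17-residue yeast protein peptides downstream of GFP and also expressed Cherry. Mid-log cultures grown without leucine were sorted into four equal gates by GFP/Cherry fluorescence ratio. Each gate's plasmids were PCR-amplified and Illumina-sequenced, and reads were matched to strains by barcodes. The protein stability index is derived by multiplying each gate's read frequency by its gate number and summing the results.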

RSPTRRLELLQLSPVKN [SMC4]
protein stability index (doa10∆): 1.38 ± 0.26
protein stability index (pdr5∆): 1.64 ± 0.19
protein stability index (ubr1∆): 1.68 ± 0.13

RSQDVRSTDRDRVKVIE [CSL4]
protein stability index (doa10∆): 3.01 ± 0.16
protein stability index (san1∆): 3.27 ± 0.12
protein stability index (ubr1∆): 2.97 ± 0.079

RTAPKSDNVYLKLLVKL [RPL18A]
protein stability index (doa10∆): 2.6 ± 0.092
protein stability index (pdr5∆): 2.8 ± 0.093
protein stability index (san1∆): 2.7 ± 0.089
protein stability index (ubr1∆): 3.03 ± 0.068

RTHFKRMRFPPFDDDEP [PRP8]
protein stability index (doa10∆): 2.65 ± 0.042
protein stability index (pdr5∆): 3.03 ± 0.047
protein stability index (san1∆): 2.91 ± 0.044
protein stability index (ubr1∆): 2.77 ± 0.035

RTIGIAVDHRRQNRNQE [RPL13A]
protein stability index (doa10∆): 2.65 ± 0.18
protein stability index (pdr5∆): 2.7 ± 0.13
protein stability index (san1∆): 3.14 ± 0.16
protein stability index (ubr1∆): 2.86 ± 0.22

RTKFVRSLVREIAGLSP [RPL36A]
protein stability index (doa10∆): 2.59 ± 0.19
protein stability index (pdr5∆): 2.71 ± 0.19
protein stability index (san1∆): 2.85 ± 0.086
protein stability index (ubr1∆): 2.92 ± 0.09

RTLNIQPEVAVKAAINF [YIL149C/MLP2]
protein stability index (doa10∆): 2.19 ± 0.054
protein stability index (pdr5∆): 2.15 ± 0.045
protein stability index (san1∆): 1.84 ± 0.071
protein stability index (ubr1∆): 2.21 ± 0.046

RTPHEIQEANSVDMSAL [RIP1]
protein stability index (pdr5∆): 3.46 ± 0.21
protein stability index (ubr1∆): 3.24 ± 0.076

RTQFGGGKSVGFGLVYN [RPS24A]
protein stability index (doa10∆): 2.96 ± 0.065
protein stability index (pdr5∆): 2.82 ± 0.05
protein stability index (san1∆): 3.27 ± 0.047
protein stability index (ubr1∆): 2.91 ± 0.055

RVAKGSGTSVFEVEMIL [SRP54]
protein stability index (doa10∆): 3.28 ± 0.071
protein stability index (pdr5∆): 3.26 ± 0.099
protein stability index (san1∆): 3.39 ± 0.076
protein stability index (ubr1∆): 3.42 ± 0.12

RVEKIPEIPLVVSTDLE [RPL4A]
protein stability index (pdr5∆): 2.93 ± 0.3
protein stability index (ubr1∆): 2.77 ± 0.22

RVIIQELRFPSPTPIQR [PRP28]
protein stability index (doa10∆): 2.57 ± 0.15
protein stability index (pdr5∆): 2.58 ± 0.15
protein stability index (san1∆): 2.41 ± 0.14

RVLETTLVEFETIKMKE [BRN1]
protein stability index (doa10∆): 2.12 ± 0.22
protein stability index (pdr5∆): 3.23 ± 0.14
protein stability index (ubr1∆): 1.34 ± 0.086

RVSHSDTNSSKPKNTKE [SIR4]
protein stability index (pdr5∆): 3.08 ± 0.26

RVVMMKYDRKVPSPTGE [RPO21]
protein stability index (doa10∆): 2.69 ± 0.11
protein stability index (pdr5∆): 3.11 ± 0.069
protein stability index (san1∆): 2.69 ± 0.079
protein stability index (ubr1∆): 2.89 ± 0.043

RVVVPQALRVLRLKPGR [RPL16B]
protein stability index (doa10∆): 1.24 ± 0.087
protein stability index (pdr5∆): 1.58 ± 0.06
protein stability index (san1∆): 1.36 ± 0.12
protein stability index (ubr1∆): 1.77 ± 0.1

RWDKEEYQSLMSLKDKL [SMC1]
protein stability index (doa10∆): 3.29 ± 0.076
protein stability index (pdr5∆): 3.31 ± 0.08
protein stability index (san1∆): 3.2 ± 0.11
protein stability index (ubr1∆): 3.09 ± 0.053

RWYQLIATGCKDGRIRI [YGL100W/SEH1]
protein stability index (doa10∆): 2.31 ± 0.065
protein stability index (pdr5∆): 2.26 ± 0.057
protein stability index (san1∆): 2.18 ± 0.078
protein stability index (ubr1∆): 2.43 ± 0.044

RYFFYLSKINAIQLDYS [RPN3]
protein stability index (doa10∆): 1.31 ± 0.057
protein stability index (pdr5∆): 1.23 ± 0.058
protein stability index (san1∆): 1.34 ± 0.15
protein stability index (ubr1∆): 1.33 ± 0.044

SAEYLQMSLEANVVDIT [YJR042W/NUP85]
protein stability index (doa10∆): 1.8 ± 0.064
protein stability index (pdr5∆): 2.19 ± 0.065
protein stability index (san1∆): 2.05 ± 0.14
protein stability index (ubr1∆): 2.38 ± 0.058

SAGDDGKVRLWKATYSN [YGL100W/SEH1]
protein stability index (doa10∆): 2.74 ± 0.061
protein stability index (pdr5∆): 2.89 ± 0.089
protein stability index (san1∆): 2.74 ± 0.06
protein stability index (ubr1∆): 3 ± 0.058

SAGKGISSSAIPYSRNA [RPS13]
protein stability index (doa10∆): 2.61 ± 0.037
protein stability index (pdr5∆): 2.58 ± 0.041
protein stability index (san1∆): 2.36 ± 0.048
protein stability index (ubr1∆): 2.21 ± 0.029

SAGQPNLLLSASRDKTL [ASC1]
protein stability index (doa10∆): 2.4 ± 0.063
protein stability index (pdr5∆): 2.77 ± 0.05
protein stability index (san1∆): 2.7 ± 0.041
protein stability index (ubr1∆): 1.91 ± 0.049

SAIVNEDGLLEGLDELP [SOH1]
protein stability index (doa10∆): 2.95 ± 0.14
protein stability index (pdr5∆): 3.24 ± 0.082
protein stability index (san1∆): 2.78 ± 0.15
protein stability index (ubr1∆): 2.8 ± 0.12

SAKAELEKLVDHHPEGL [PRE10]
protein stability index (doa10∆): 2.84 ± 0.065
protein stability index (pdr5∆): 2.91 ± 0.055
protein stability index (san1∆): 2.55 ± 0.068
protein stability index (ubr1∆): 2.75 ± 0.048

SAKEIAKASGCDDESGD [MCD1]
protein stability index (doa10∆): 2.19 ± 0.094
protein stability index (pdr5∆): 1.8 ± 0.15
protein stability index (san1∆): 2.62 ± 0.12
protein stability index (ubr1∆): 2.86 ± 0.14

SAKPSQIPTVSSPLGFE [SIR4]
protein stability index (doa10∆): 3.14 ± 0.064
protein stability index (pdr5∆): 2.98 ± 0.058
protein stability index (san1∆): 2.85 ± 0.068
protein stability index (ubr1∆): 3.03 ± 0.047

SARGSYLRVSFKNTRET [RPL17A]
protein stability index (doa10∆): 3.1 ± 0.048
protein stability index (pdr5∆): 2.82 ± 0.056
protein stability index (san1∆): 2.77 ± 0.051
protein stability index (ubr1∆): 2.86 ± 0.06

SASDALKGRVVEVCLAD [RPS1A]
protein stability index (doa10∆): 2.46 ± 0.06
protein stability index (pdr5∆): 2.82 ± 0.093
protein stability index (san1∆): 2.35 ± 0.081
protein stability index (ubr1∆): 2.43 ± 0.055

SASHFEQYTKKINSWDQ [YJL041W/NSP1]
protein stability index (doa10∆): 2.8 ± 0.076
protein stability index (pdr5∆): 3.06 ± 0.061
protein stability index (san1∆): 2.69 ± 0.083
protein stability index (ubr1∆): 3.02 ± 0.052

SASKHEYSDNFPVSLSQ [SIR4]
protein stability index (doa10∆): 3 ± 0.045
protein stability index (pdr5∆): 2.71 ± 0.039
protein stability index (san1∆): 3.06 ± 0.04
protein stability index (ubr1∆): 3.041 ± 0.029

SASSKEFNFTNLQAKPL [YAR002W/NUP60]
protein stability index (doa10∆): 2.43 ± 0.072
protein stability index (pdr5∆): 2.26 ± 0.068
protein stability index (san1∆): 2.46 ± 0.06
protein stability index (ubr1∆): 2.42 ± 0.051

SAVKRLLHVAVSDSNDD [RPN2]
protein stability index (doa10∆): 2.39 ± 0.11
protein stability index (pdr5∆): 3.06 ± 0.071
protein stability index (san1∆): 2.56 ± 0.083
protein stability index (ubr1∆): 2.69 ± 0.063

SCKDSQLKWAQNTIDDT [YIL149C/MLP2]
protein stability index (doa10∆): 2.15 ± 0.042
protein stability index (pdr5∆): 2.89 ± 0.057
protein stability index (san1∆): 2.65 ± 0.046
protein stability index (ubr1∆): 2.74 ± 0.053

SCTFWSDKESNAYGFIE [YJL039C/NUP192]
protein stability index (doa10∆): 2.9 ± 0.079
protein stability index (pdr5∆): 2.65 ± 0.083
protein stability index (san1∆): 2.83 ± 0.07
protein stability index (ubr1∆): 3.26 ± 0.09

SDAQSNLGSNVRNSFPL [REC8]
protein stability index (doa10∆): 3.01 ± 0.07
protein stability index (pdr5∆): 3.12 ± 0.11
protein stability index (san1∆): 2.87 ± 0.082
protein stability index (ubr1∆): 3.07 ± 0.055

SDESIERLMTWKFKSLI [RRI2]
protein stability index (doa10∆): 2.26 ± 0.048
protein stability index (pdr5∆): 2.36 ± 0.042
protein stability index (san1∆): 2.11 ± 0.066
protein stability index (ubr1∆): 2.31 ± 0.031

SDEVSRGIPRLSEDELR [SMC4]
protein stability index (doa10∆): 3.43 ± 0.14
protein stability index (pdr5∆): 3.69 ± 0.21
protein stability index (san1∆): 3.39 ± 0.14
protein stability index (ubr1∆): 3.58 ± 0.1

SDIIILKGEIEDYPMSS [SIR4]
protein stability index (san1∆): 3.12 ± 0.24
protein stability index (ubr1∆): 3.48 ± 0.16

SDIISMLQISDDNEMTR [RRI2]
protein stability index (doa10∆): 3.05 ± 0.096
protein stability index (pdr5∆): 3.24 ± 0.1
protein stability index (san1∆): 3.2 ± 0.045
protein stability index (ubr1∆): 2.87 ± 0.1

SDIVFIHQNAGRLLRAM [BRR2]
protein stability index (doa10∆): 1.73 ± 0.054
protein stability index (pdr5∆): 1.71 ± 0.054
protein stability index (san1∆): 1.9 ± 0.071
protein stability index (ubr1∆): 2.02 ± 0.06

SDLGTVVFDSNEAPPKT [YMR153W/NUP53]
protein stability index (doa10∆): 3.17 ± 0.057
protein stability index (pdr5∆): 3.13 ± 0.051
protein stability index (san1∆): 2.6 ± 0.076
protein stability index (ubr1∆): 2.58 ± 0.069

SDNVSFEIQGVPPMKLA [YMR129W/POM152]
protein stability index (doa10∆): 2.8 ± 0.11
protein stability index (pdr5∆): 3.18 ± 0.083
protein stability index (san1∆): 3.05 ± 0.062
protein stability index (ubr1∆): 2.86 ± 0.088

SDSEDSDAKEQHQSLSR [ESC2]
protein stability index (doa10∆): 2.81 ± 0.14
protein stability index (pdr5∆): 3.19 ± 0.15
protein stability index (san1∆): 3.04 ± 0.084
protein stability index (ubr1∆): 2.52 ± 0.083

SDTSKPAFTFGAQKDNE [YJL041W/NSP1]
protein stability index (doa10∆): 3.32 ± 0.094
protein stability index (pdr5∆): 3.32 ± 0.087
protein stability index (san1∆): 3.36 ± 0.074
protein stability index (ubr1∆): 3.48 ± 0.059

SEDLFADGLLQVLVCTA [BRR2]
protein stability index (ubr1∆): 2.25 ± 0.13

SEENIGSGLLKLSEIIL [SWI1]
protein stability index (doa10∆): 3.2 ± 0.074
protein stability index (pdr5∆): 3.02 ± 0.066
protein stability index (san1∆): 2.92 ± 0.048
protein stability index (ubr1∆): 3.37 ± 0.06

SEHDKKRLSAALSKFLT [YML103C/NUP188]
protein stability index (doa10∆): 2.99 ± 0.09
protein stability index (pdr5∆): 3.08 ± 0.09
protein stability index (san1∆): 3.06 ± 0.068
protein stability index (ubr1∆): 3.13 ± 0.071

SEIARTYLLKNDLVKAR [RPN9]
protein stability index (doa10∆): 3.29 ± 0.2
protein stability index (san1∆): 3.09 ± 0.12

SEIKQQINKAQILENYN [YJL039C/NUP192]
protein stability index (doa10∆): 2.94 ± 0.089
protein stability index (pdr5∆): 3.17 ± 0.069
protein stability index (san1∆): 2.73 ± 0.091
protein stability index (ubr1∆): 3.11 ± 0.057

SEKLITKYFEPTSTENN [ECM29]
protein stability index (doa10∆): 2.87 ± 0.076
protein stability index (pdr5∆): 3.09 ± 0.066
protein stability index (san1∆): 3.04 ± 0.035
protein stability index (ubr1∆): 2.97 ± 0.041

SELDSNDFFIIYYTPAF [YJL039C/NUP192]
protein stability index (doa10∆): 1.39 ± 0.065
protein stability index (pdr5∆): 1.51 ± 0.041
protein stability index (san1∆): 1.63 ± 0.075
protein stability index (ubr1∆): 1.55 ± 0.044
